One molecule from publication PMC11424477 (2024) can be followed below.

For this assay, the target named is spike (trimeric, Wuhan) (SARS-CoV-2, UniProt P0DTC2).

B1: fibrin (protein)
chain 1: ADSGEGDFLAEGGGVR
chain 2: QGVNDNEEGFFSAR
chain 3: YVATRDNCCILDERFGSYCPTTCGIADFLSTYQTKVDKDLQSLEDILHQVENKTSEVKQLIKAIQLTYNPDESSKPNMIDAATLKSRKMLEEIMKYEASILTHDSSIRYLQEIYNSNNQKIVNLKEKVAQLEAQCQEPCKDTVQIHDITGKDCQDIANKGAKQSGLYFIKPLKANQQFLVYCEIDGSGNGWTVFQKRLDGSVDFKKNWIQYKEGFGHLSPTGTTEFWLGNEKIHLISTQSAIPYALRVELEDWNGRTSTADYAMFKVGPEADKYRLTYAYFAGGDAGDAFDGFDFGDDPSDKFFTSHNGMQFSTWDNDNDKFEGNCAEQDGSGWWMNKCHAGHLNGVYYQGGTYSKASTPNGYDNGIIWATWKTRWYSMKKTTMKIIPFNRLTIGEGQQHHLGGAKQVRPEHPAETEYDSLYPEDDL
As usually defined, the Kd is a measure of binding affinity in units of concentration. A high value points to a looser complex. B1 returned a Kd of 390 nM. In other words, the sub-micromolar range.
